From publication PMC6381275, “Structure and Mechanism of LcpA, a Phosphotransferase That Mediates Glycosylation of a Gram-Positive Bacterial Cell Wall-Anchored Protein” (mBio, 2019)

Test system: CC(C)=CCC/C(C)=C/CC/C(C)=C/CO[P@@](=O)(O)OP(=O)(O)O
Experiment: fluorometric inorganic phosphate release assay (pyrophosphatase)
Format: biochemical, Actinomyces oris
Settings: 20 mM Tris-HCl pH 8.0, 30°C, 24 h, 3 µM enzyme, 0-150 µM FPP

LcpA (eLcpA, recombinant extracellular LCP domain) (Actinomyces oris)
Km: 15.2 ± 3.7 µM
